We go through 13 molecules from patent publication US20170152290A1.

Test [1] concerns the target LRP1 receptor (Low Density Lipoprotein Receptor-Related Protein) on Vero cells. In words: cell-based or functional assay.
In test [2] the target is T1, sLRP1-CIV (cluster IV of LRP1 fused to the constant region of a human IgG1) (human). In words: SPR (Biacore X), sLRP1-CIV immobilised on CM5 chip, peptide at 20 µM; RU at 270 s.
Test [3] concerns the target T1, sLRP1-CIV (cluster IV of LRP1 fused to …). Kind of test: SPR (Biacore X), sLRP1-CIV immobilised on CM5 chip, peptide at 20 µM; RU observed at 160 s.

Where only a bound is given, the exact number is not on record here.

B1: beta hairpin peptide PHB4 (peptide)
peptide: CIEVYWTRPKWKVNWFICKKK
modifications: not checked
On to B1, for which, in test [1], the Antiviral activity IC50 vs DENV1 (plaque reduction, Vero cells) stood at 2 nM; the Antiviral activity IC50 vs DENV2 (plaque reduction, Vero cells) was 3 nM; the Antiviral activity IC50 vs DENV3 (plaque reduction, Vero cells) is 5 nM; the Antiviral activity IC50 vs DENV4 (plaque reduction, Vero cells) came out at 0.01 µM. This molecule also returned an Antiviral activity in Vero cells, IC50 (plaque reduction, DENV2) in test [1] of 0.003 µM. Also, the RU (at 270 s) in test [2] amounted to 3600 RU.

B2: beta hairpin peptide PHB9 (peptide)
peptide: CIEVYVTINGKKYNWFICKKK
modifications: not checked
Turning to B2, the Antiviral activity in Vero cells, IC50 (plaque reduction, DENV2) in test [1] was 7 µM. In addition, the RU (at 270 s) in test [2] came to 1080 RU.

B3: peptide HDIII3CLK- (peptide)
peptide: CSNIVIGIGDKALAINWCKKK
modifications: not checked
In test [1], B3 returned an Antiviral activity in Vero cells, IC50 (plaque reduction, DENV2) greater than 100 µM. Further, in test [3], the RU (at 160 s) turned out to be 276 RU.

B4: beta hairpin peptide PHB1 (peptide)
peptide: CVNWTEPDKKVNWCKKK
modifications: not checked
Turning to B4, the Antiviral activity in Vero cells, IC50 (plaque reduction, DENV2) in test [1] was determined as 75 µM. Also, the RU (at 270 s) in test [2] came out at 117 RU.

B5: beta hairpin peptide PHB3 (peptide)
peptide: CIEVNWTEPDKKVNWFICKKK
modifications: not checked
As for B5, the Antiviral activity in Vero cells, IC50 (plaque reduction, DENV2) in test [1] was found to be 17 µM.

B6: peptide HDIII3CLC- (peptide)
peptide: SSNIVIGIGDKALKINWSKKK
modifications: not checked
The molecule B6 yielded an Antiviral activity in Vero cells, IC50 (plaque reduction, DENV2) in test [1] greater than 100 µM.

B7: beta hairpin peptide PHB8 (peptide)
peptide: CIEVNVTINGKKYNWFICKKK
modifications: not checked
In turn, B7 returned an Antiviral activity in Vero cells, IC50 (plaque reduction, DENV2) in test [1] of 15 µM.

B8: beta hairpin peptide PHB7 (peptide)
peptide: CVNVTINGKKYNWCKKK
modifications: not checked
Regarding B8, in test [1], the Antiviral activity in Vero cells, IC50 (plaque reduction, DENV2) was found to be 79 µM.

B9: beta hairpin peptide PHB2 (peptide)
peptide: CVYWTRPKWKVNWCKKK
modifications: not checked
With B9, the Antiviral activity in Vero cells, IC50 (plaque reduction, DENV2) in test [1] turned out to be 12 µM. This molecule gave an RU (at 270 s) in test [2] of 861 RU.

B10: beta hairpin peptide PHB6 (peptide)
peptide: FWNWKWEPNKWTWNVEGGKKK
modifications: not checked
In test [1], B10 returned an Antiviral activity in Vero cells, IC50 (plaque reduction, DENV2) of 33 µM.

B11: peptide HDIII3CL2 (peptide)
peptide: CSNIVIGIGDKALKINWCKKK
modifications: not checked
B11 returned an Antiviral activity in Vero cells, IC50 (plaque reduction, DENV2) in test [1] of 20 µM. Further, in test [3], the RU (at 160 s) is 1010 RU.

B12: beta hairpin peptide PHB5 (peptide)
peptide: FWNWKWEKNKWTWNVEGGKKK
modifications: not checked
In test [1], B12 gave an Antiviral activity in Vero cells, IC50 (plaque reduction, DENV2) of 17 µM. The molecule further registered an RU (at 270 s) in test [2] of 175 RU.

B13: peptide HDIII3CLW- (peptide)
peptide: CSNIVIGIGDKALKINACKKK
modifications: not checked
In test [1], B13 came in with an Antiviral activity in Vero cells, IC50 (plaque reduction, DENV2) greater than 100 µM.
